The source of these data is patent publication US20140289906A1, “Compositions Having Dicamba Decarboxylase Activity and Methods of Use” (priority 2013, published 2014).

Changes are numbered by the printed parent chain.

This series can be described thus: 14C assay: 14CO2 capture from [14C]-carboxyl-labeled dicamba with IPTG-induced recombinant E. coli cells. Conditions: for Dicamba Decarboxylase Activity: IPTG-induced recombinant E. coli cells, 14CO2 from [14C]-carboxyl-labeled dicamba; for decarboxylation activity of dicamba: among the 108 sequences tested, recombinant E. coli cell assay; for Enzymatic Detection level: dicamba decarboxylation activity.

B1: 22 (protein, listed as Staphylococcus epidermidis)
chain: MAKSINFEEHYVVDDIQKETMKYMSSDPNGVPMQTMLKGLEQKSGFTNADDITKHDERIKFMDEHDVEMQVLSYGNGAPSNLEGERAIELCQQANDTLAKYVNEHPDRFVGFATLPINEPQAAVEEFKRCIKELGFKGALIMGHPKNGFLDQDQYDDLFATAEALNVPIYLHPSPVQSDVYQAYYKGNYSDVTAATFACFGYGWHVDVGIHAIHLVLSGVFDRHPNLNMIIGHWGEFVPFFLERMDDILFADHLEHPISYYFKNNFYITPSGMLTKPQFDLVKAEVGVDRILYSADYPYVEPDKLGTFLDELDLTEEEKEKISYKNGAKLLGLEK
As to B1, the “Dicamba Decarboxylase Activity” value is reported as “High”, the “decarboxylation activity of dicamba” value is given as “showed decarboxylation activity of dicamba” and the “Enzymatic Detection level” value was “High”.

B2: 4 (protein, listed as Lactobacillus buchneri)
chain: MAKVITLEEHFSSQKLGQKMAEVLPKRPIGNVSPKMQDYMQRSLPPEAELEDVTGSRIQWMDQHQISMQILSYGNQNPQNSDPKFAVELTKLANDELAKAVAKAPDRFRAFASLPVSHPTDAAAELKRGVEELGFKGAMLVRPTSQAHPFFDDPFYLPIFEAAANLNVPVYLHPSFPDSQIIDYYYSNGPWDDKVSGILGTAGYGWHTDVGIQTVRLLLSGVFEKYPNLKLISGHWGEFASFALERMDQVMYPETNLSEPISKIYRDHVYVTPSGILTEPQLKFVKDEVGIEHLLYSIDYPYIKPENSGSFIESSPLTDEEKELFAHGNAEKLLQL
Regarding B2, the “Dicamba Decarboxylase Activity” value is recorded as “High”, the “decarboxylation activity of dicamba” value was “showed decarboxylation activity of dicamba” and the “Enzymatic Detection level” value is “High”.

B3: 26 (protein, listed as Variovorax paradoxus)
chain: MATHMAPMKNKIALEEHFAIDLTIADSQVYARPEVWQGLKSNLLDFEQQRLEKMDEWGTEFSILSLNSPAVQGIPDAKRAIEVAQRANDVLAEQVKRHPTRFGGFAALPMQDPEASARELERCVNQLGFHGFLVNGFSQVGDENIVVYYDDARFNDFWTAAAALKKPFYMHPRDPLLAREPIYDGAHWLTGPTWAFAMETAIHALRLMSSGMFDRHPALQMILGHFGEGIPFNIWRVDHILRKGRRGMPCDKEIGEYLRSNVHITTSGNFRTPTLLSTMLEVGSDRIMYSVDYPFEKHEDAARWFDTCEISENDRQKIGRDNARKLFGLK
B3: the “Dicamba Decarboxylase Activity” value is given as “High”, the “decarboxylation activity of dicamba” value is “showed decarboxylation activity of dicamba” and the “Enzymatic Detection level” value was “High”.

B4: 19 (protein, listed as Talaromyces marneffei)
chain: MATPIITLEEHYISSAIRDASETDHYAVFPSQIISKLNTLSTERLQDLDNGHVSLQVISHGPGAQPPYLCQAANDELASAISANPTRFAGFALLPIAEPQLAVQELERCITQHKFVGALIDNHTNGQFYDDQKFWPVFEKAQELDAPIYVHPSYPDEESGVAAHYRGNYDDRIAAALGAYGWGWHSDTALSILRLFAAGLFDTYPNIKIIIGHMGEMLPFQLERVIGIASRFGRSRGLREVWTQNIWVTTSGMFALAPLACLLQTMPIERVLYSVDYPFSANEKGFAFLEEIKKSGLIKEGEDWERFLYKNAQELLKVNV
For the molecule B4, the “Dicamba Decarboxylase Activity” value is reported as “High”, the “decarboxylation activity of dicamba” value is “showed decarboxylation activity of dicamba” and the “Enzymatic Detection level” value is listed as “High”.

B5: 81 (protein, listed as Verticillium dahliae)
chain: MAASTKPKVVDIHTHMYPPSYIDILTSRTAIPVVRTFPQAADPRLILLDAEQQALDAALQDPTAKPPGRPLTSHYASLDQKIHFMDTHSIDISVVSLANPWLDFIEPKEAAATARSVNDEFEAMCASQPGRLFFFAALPLTAPLPALLEAVRHVAELEHCRGVILGTSGLGSGLDDPELVPVLEAVAAAALTVFLHPHYGLPNDVWGPRASAEYGHVLPLALGFPMETTIAVARMYLAGVFDRVPALRMLLAHSGGTLPFLAGRIESCILHDGQLVAEGKVGAARRTIWDVLREQVYLDAVIYSEIGLKAAIAASGGADRLMFGTDHPFFPPLGTDEQAKKESRINAGGSRPMITGNAMINGHGGLCNHITQSDYQDVVL
B5: the “Dicamba Decarboxylase Activity” value is “High”, the “decarboxylation activity of dicamba” value was “showed decarboxylation activity of dicamba” and the “Enzymatic Detection level” value is “High”.

B6: 87 (protein, listed as Novosphingobium sp.)
chain: MASDIATAADLQTGGRQGYLRIATEEAFATRDQIDVYLRMVRDGTADRGMTSLWGFYAQSPSARATQIIERLLDLGEQRLADMDAAGIDKAVLALTSPGVQPLLDMEEARRIAGNANDRLAERCAAHPDRFIGMTAVAPQDPQWSAREILRGATQLGFKGVQINSHTQGRYLDEPFFDPIFRALGDVGQPLYIHPGTPPDSMIGPLLDAGLDGAIYGFGVETGMHLLRLITAGIFDRYPDLQIMVGHMGEALPYWLYRLDYMHQAGIRSQRYERMRPLKRTIAGYFRSNVLVTCSGMAWEPAIQFARQVMGEDRVMYAMDYPYQYEADEVRALDVMDLSPESKRKFFQTNAERWFDL
Regarding B6, the “Dicamba Decarboxylase Activity” value was “High”, the “decarboxylation activity of dicamba” value is listed as “showed decarboxylation activity of dicamba” and the “Enzymatic Detection level” value is recorded as “High”.

B7: 92 (protein, listed as Chitinophaga pinensis)
chain: MARIVTLEEHVSFPEMTALLPEEILKNRKQSGAALQMQEKLADITGERLTSMKAAGISMQVLSVENTDVYLLPDSLAPAFAAKYNDLLADKISSHSDAFAAFAMLPMTVPEAAADELERAVKTHGFCGAMIKGLINGVFLDAPKFAPVFACAEKLGVPLYIHPGIPPKEVIDAYYSNVGDTKGPNEAIACYGWGWHSETAIHILRLLAAGIFDKYPQLNIIIGHMGEMLPMMWERSNRVFQPGNNGKNQRTLIETFRKQLYITTSGIFTQPPLQIAIDTIGIDNILFSIDYPFSSNQMGIDFLTKAALPAEQLAKMAHGNADRILKF
In the case of B7, the “Dicamba Decarboxylase Activity” value is “Yes”, the “decarboxylation activity of dicamba” value was “showed decarboxylation activity of dicamba” and the “Enzymatic Detection level” value is recorded as “High”.

B8: 89 (protein, listed as Erwinia billingiae)
chain: MATNRRDFLKNATAVMAGSTVFAGSSHFASAAAVEPAAVQPPRRIIALEEHFMLPEFVGYLHETQQNLRNGLVDKVVTPLSDFGKGRLEIMDKNGVDFAVLSLSGPGVQAEPDRVKAVRLARYANDKLATEMQKNPRRYGGFAHLAMQDPLAAANELERCVKQLHMQGGMINGETDGLYLDDRRYDVFWERVEALNVPIYIHPGNPPDYPHMFAGHPEMWGPVWSWAVETCSHALRLIFSGTFDRYPGARVILGHMGETLPIQLWRLDSRYQIANQTFAIKHPPSWYAKKNITITTSGVCNDAALRCALDSMGSENVMFSIDYPFESTEIAVNWLKTANITEQERNAVAWGNATSILRLGA
For B8, the “Dicamba Decarboxylase Activity” value is on record as “High”, the “decarboxylation activity of dicamba” value is on record as “showed decarboxylation activity of dicamba” and the “Enzymatic Detection level” value was “High”.

B9: 21 (protein, listed as Agrobacterium tumefaciens)
chain: MAQGKVALEEHFAIPETLQDSAGFVPGDYWKELQHRLLDIQDTRLKLMDAHGIETMILSLNAPAVQAIPDRKKAIEIARRANDVLAEECARRPDRFLAFAALPLQDPDAATQELQRCVNDLGFVGALVNGFSQEGDGQTPLYYDLPQYRPFWGEVEKLDVPFYLHPRNPLPQDSRIYDGHPWLLGPTWAFAQETAVHALRLMASGLFDAHPRLNIILGHMGEGLPYMMWRIDHRNAWVKLPPRYPAKRRFVDYFNENFHITTSGNFRTQTLIDAILEIGADRILFSTDWPFENIDHASDWFNATTIAEADRVKIGRTNARRLFKLDGR
Take B9: the “Dicamba Decarboxylase Activity” value is “High”, the “decarboxylation activity of dicamba” value was “showed decarboxylation activity of dicamba” and the “Enzymatic Detection level” value is “High”.

B10: 5 (protein, listed as Staphylococcus aureus)
chain: MAQNNMEANQMKSITFEEHYVIEDIQKETMNAISADPKGVPMKVMLEGLEKKTGFTNADELSHHDERIQFMNNQDVQIQVLSYGNGSPSNLVGQKAIELCQKANDQLANYIAQYPNRFVGFATLPINEPEAAAREFERCINDLGFKGALIMGRAQDGFLDQDKYDIIFKTAENLGVPIYLHPAPVNSDIYQSYYKGNYPEVTAATFACFGYGWHIDVGIHAIHLVLSGIFDRYPKLNMIIGHWGEFIPFFLERMDEALFAEHLNHPVSYYFKNNFYITPSGMLTKPQFDLVKKEAGIDRILYAADYPYIEPEKLGVFLDELGLTDEEKEKISYTNGAKLLGLSSNN
In the case of B10, the “Dicamba Decarboxylase Activity” value is listed as “High”, the “decarboxylation activity of dicamba” value was “showed decarboxylation activity of dicamba” and the “Enzymatic Detection level” value is “High”.

B11: 16 (protein, listed as Staphylococcus aureus)
chain: B10 chain with A131T
Consider B11, for which the “Dicamba Decarboxylase Activity” value is “High”, the “decarboxylation activity of dicamba” value is “showed decarboxylation activity of dicamba” and the “Enzymatic Detection level” value is recorded as “High”.

B12: 88 (protein, listed as Starkeya novella)
chain: MARKIALEEHFTTPELAGKYVARPTQSDALFADIERRLADFDELRLEMMDRAEIDLMVLSVTTPGVQGVRDTGEAIRLARGANDFLAREVQKRPSRYAGFAHLAMQDAEAAATELERAVRELGFRGALINGQTNGHYLDEDQYAPFWERVQELDVPVYLHPGNMADSPAMFAHRPELGGPIWAWTAETAAHALRLVFGGTFTRFPGAKVILGHMGETLPFLLWRLDSRREFDLGEKLAPDALPSAIIKRNIAVTTSGVCDPAPLVAALQALSDDNVMFSVDYPYEDPQLASKFIETAPIGEETRAKVCHGNAERLLGL
Consider B12, for which the “Dicamba Decarboxylase Activity” value was “High”, the “decarboxylation activity of dicamba” value was “showed decarboxylation activity of dicamba” and the “Enzymatic Detection level” value is “High”.

B13: 79 (protein)
chain: MATTTTPSTLIATLESHLTPTLAFTSPTTSPTQPALHLIPPTTLTKLRNLGPGRVKDMHMLGHSRQIISHIPVAAPPQICSRFNDAIHAATMTNTAKFSVLAVLPTDGMEAAKELARCVSKYRFVGGVIGLNRGLRINGEGWEELWGLAERLRIPIMFREMWPLAFEIVDYQHHLPYSALGPILTQLHTSHTSSPLPLVRLYLSSVFDHYPSLRLVLAHPGSLPSLVPRIESLINSIPATDKPKRSFLDVWQHNIYLTTADAQDMSSLRALLEQIPVDRVLYASNYPFEERGNELMNELRESEFLTNIEWERVAWVNAETLFNLKEAGTKEARQLTTIPSSRS
modifications: Pyrenophora teres
Take B13: the “Dicamba Decarboxylase Activity” value is “High”, the “decarboxylation activity of dicamba” value was “showed decarboxylation activity of dicamba” and the “Enzymatic Detection level” value is “High”.
